From patent US20240209061A1, “FUSION PROTEINS AND USES THEREOF” (Pfizer Inc., priority 2020, published 2024)

Key:
[1] = Pharmacokinetics in cynomolgus monkeys; assay type: in vivo; conditions: cynomolgus monkey
Experimental: PK of variant CD80-Fc fusion proteins was assessed in non-human primates. […] A ligand binding assay using the Gyrolab Immunoassay platform was used to quantitate CD80-Fc molecules in cynomolgus monkey serum following dose administration. CD80-Fc constructs were captured onto the Gyrolab Bioaffy CD using a biotinylated monoclonal anti-human CD80 antibody (Thermo Fisher Cat #13-0809-82). Bound CD80-Fc constructs were detected using a mouse anti-human Fc antibody (SouthernBiotech Cat #9040-01) that was labeled with Alexa Fluor 647. Sample concentrations were determined by interpolation from a calibration curve that were fit using a 5-parameter logistic regression model. The range of quantitation of the assay was 100-15000 ng/ml in 100% serum. […] AUC (Area Under the Curve); Cmax (Maximum Concentration observed); Tmax (Time of Maximum concentration observed)

[2] = test system: CT26 murine colorectal carcinoma tumor cells; assay: CT26 murine colorectal carcinoma model; assay type: in vivo, mouse; conditions: for Day 10 tumor volume: Days 0 and 3; for % tumor growth inhibition: Day 10
Experimental: CT26 murine colorectal carcinoma tumor cells (1×10^6) were subcutaneously implanted in the hind flank of female Balb/c mice. When tumors reached ˜100 mm3 (Day 8), mice were randomized. PBS vehicle control or variant CD80-Fc fusion proteins were dosed intravenously at 0.1 and 1.0 mg/kg on Days 0 and 3. Tumor volume was determined by caliper measurements obtained in 2 dimensions and calculated as width^2×length/2. Error bars are depicted as ±SEM.
IFNγ ELIspot was used to measure tumor-reactive T cells in the spleen in mice treated with CD80-Fc fusion proteins at a 1 mg/kg dose.
Cytotoxic CD8^+ T cells are responsible for killing cancer cells and the measurement of CD8^+ T cells that have infiltrated tumors commonly correlates with efficacy for immune-oncology therapies. For all in vivo studies, tumors were collected ˜1 week after the first dose and dissociated by mincing, followed by incubation in an enzymatic digestion cocktail and homogenization. The resulting cell suspension was filtered and washed, and single cells were stained with antibodies to CD45, CD8, and a viability dye to detect tumor-infiltrating lymphocytes (TILs) by flow cytometry. Data were acquired on a BD LSRFortessa flow cytometer or a Cytek Aurora spectral flow cytometer. Table 31 and FIG. 18 show the amount of tumor-infiltrating CD8+ T cells expressed as a percentage of total immune cells (CD45+). Each value is the average of n=4 mice per group. Treatment with all variant CD80-Fc fusion proteins led to increase in CD8+ TILs in various tumor models.

[3] = test system: peripheral blood mononuclear cells (PBMC); assay: RESTORE cytokine release assay in absence of TCR stimulation; assay type: cell-based, human; parameters: IFNγ: unit not given beside the values
Experimental: The ability of variant CD80-Fc fusion proteins to promote cytokine release in the absence of TCR stimulation was assessed in the RESTORE (RESetting T cells to Original Reactivity) assay (Römer et al, Blood, 2011). Freshly isolated peripheral blood mononuclear cells (PBMC) from whole blood of several healthy donors were cultured for 48 hours at […] within RPMI1640 media supplemented with 10% autologous plasma, 10 mM HEPES, 1× GlutaMAX, 1× PenStrep, beta2-mercaptoethanol, NEAA and sodium pyruvate. Following the 48-hour incubation, PBMC were pelleted and resuspended at a final concentration of 10^6/ml with indicated soluble drug. Treatment was allowed for 48 hours then supernatant was harvested and assessed in IL-2 and IFNγ ELISA according to manufacturer's protocol (BioLegend).
Positive controls included CD28 superagonist anti-CD28 clone TGN1412 as IgG1 and IgG4 isotypes and anti-CD3. […] Values shown are the average of 3 technical replicates. D=Donor.

CD80-K89Q-D90Q-Fc: variant CD80 ECD (K89Q, D90Q) fused to human IgG1 Fc
AUC ([1]; 3 mpk IV): 1230 µg·h/mL
AUC fold-increase over WT ([1]; 3 mpk IV): 0.50
Cmax ([1]; 3 mpk IV): 89.4 µg/mL
Tmax ([1]; 3 mpk IV): 4.98 min
AUC ([1]; 15 mpk IV): 12100 µg·h/mL
AUC fold-increase over WT ([1]; 15 mpk IV): 0.87
Cmax ([1]; 15 mpk IV): 570 µg/mL
Tmax ([1]; 15 mpk IV): 4.98 min
AUC ([1]; 50 mpk IV): 27300 µg·h/mL
AUC fold-increase over WT ([1]; 50 mpk IV): 0.74
Cmax ([1]; 50 mpk IV): 1420 µg/mL
Tmax ([1]; 50 mpk IV): 4.98 min
Number of tumor regressions ([2]; 0.1 mg/kg): 1/10
Day 10 tumor volume ([2]; 0.1 mg/kg IV): 857.6 mm^3
% tumor growth inhibition ([2]; 0.1 mg/kg): 28.41%
Number of tumor regressions ([2]; 1 mg/kg): 5/10
Day 10 tumor volume ([2]; 1 mg/kg IV): 299.0 mm^3
% tumor growth inhibition ([2]; 1 mg/kg): 75.04%
# IFNγ-producing spots (tumor-reactive T cells in spleen) ([2]; 1 mg/kg, average of n = 4 mice): 569.5
IFNγ ([3]; Table 20, D222, 1 μg/ml): 3.7
IL-2 ([3]; Table 20, D222, 1 μg/ml): 4.3
IFNγ ([3]; Table 20, D222, 10 μg/ml): 4.0
IL-2 ([3]; Table 20, D222, 10 μg/ml): 4.0
IFNγ ([3]; Table 20, D281, 1 μg/ml): 3.3
IL-2 ([3]; Table 20, D281, 1 μg/ml): 2.3
IFNγ ([3]; Table 20, D281, 10 μg/ml): 6.7
IFNγ ([3]; Table 20, D462, 1 μg/ml): 7.0
IFNγ ([3]; Table 20, D462, 10 μg/ml): 15.0
IL-2 ([3]; Table 20, D462, 10 μg/ml): 1.7
IFNγ ([3]; Table 20, D547, 1 μg/ml): 4.0
IL-2 ([3]; Table 20, D547, 1 μg/ml): 6.3
IFNγ ([3]; Table 20, D547, 10 μg/ml): 8.0
IL-2 ([3]; Table 20, D547, 10 μg/ml): 3.3

CD80-WT-Fc: wild-type human CD80 extracellular domain fused to human IgG1 Fc (C220S) [reference compound]
AUC ([1]; 3 mpk IV): 2480 µg·h/mL
Cmax ([1]; 3 mpk IV): 90.7 µg/mL
Tmax ([1]; 3 mpk IV): 4.98 min
AUC ([1]; 15 mpk IV): 13900 µg·h/mL
Cmax ([1]; 15 mpk IV): 460 µg/mL
Tmax ([1]; 15 mpk IV): 4.98 min
AUC ([1]; 50 mpk IV): 37000 µg·h/mL
Tmax ([1]; 50 mpk IV): 4.98 min
IFNγ ([3]; Table 20, D222, 1 μg/ml): 4.3
IL-2 ([3]; Table 20, D222, 1 μg/ml): 7.7
IFNγ ([3]; Table 20, D222, 10 μg/ml): 3.3
IL-2 ([3]; Table 20, D222, 10 μg/ml): 9.3
IFNγ ([3]; Table 20, D281, 1 μg/ml): 3.0
IL-2 ([3]; Table 20, D281, 1 μg/ml): 3.0
IFNγ ([3]; Table 20, D281, 10 μg/ml): 3.3
IL-2 ([3]; Table 20, D281, 10 μg/ml): 2.0
IFNγ ([3]; Table 20, D462, 1 μg/ml): 6.0
IL-2 ([3]; Table 20, D462, 1 μg/ml): 1.7
IFNγ ([3]; Table 20, D462, 10 μg/ml): 7.3
IL-2 ([3]; Table 20, D462, 10 μg/ml): 2.0
IFNγ ([3]; Table 20, D547, 1 μg/ml): 4.0
IL-2 ([3]; Table 20, D547, 1 μg/ml): 9.0
IFNγ ([3]; Table 20, D547, 10 μg/ml): 3.3
IL-2 ([3]; Table 20, D547, 10 μg/ml): 5.3
IL-2 ([3]; Table 21, D132, 1.9 μg/ml): 0.0
IL-2 ([3]; Table 21, D132, 5.6 μg/ml): 0.0
IL-2 ([3]; Table 21, D132, 16.7 μg/ml): 0.3
IL-2 ([3]; Table 21, D149, 1.9 μg/ml): 0.3
IL-2 ([3]; Table 21, D149, 5.6 μg/ml): 4.3
IL-2 ([3]; Table 21, D149, 16.7 μg/ml): 0.0
IL-2 ([3]; Table 21, D149, 50 μg/ml): 0.0
IL-2 ([3]; Table 21, D379, 1.9 μg/ml): 3.3
IL-2 ([3]; Table 21, D379, 50 μg/ml): 0.3
IL-2 ([3]; Table 21, D399, 1.9 μg/ml): 0.0
IL-2 ([3]; Table 21, D399, 5.6 μg/ml): 0.0
IL-2 ([3]; Table 21, D399, 16.7 μg/ml): 0.0
IL-2 ([3]; Table 21, D399, 50 μg/ml): 3.0
IL-2 ([3]; Table 21, D417, 1.9 μg/ml): 5.7
IL-2 ([3]; Table 21, D417, 5.6 μg/ml): 10.7
IL-2 ([3]; Table 21, D417, 16.7 μg/ml): 0.3
IL-2 ([3]; Table 21, D417, 50 μg/ml): 0.3
IL-2 ([3]; Table 21, D518, 1.9 μg/ml): 4.7
IL-2 ([3]; Table 21, D518, 5.6 μg/ml): 4.7
IL-2 ([3]; Table 21, D518, 16.7 μg/ml): 1.3
IL-2 ([3]; Table 21, D518, 50 μg/ml): 2.7
IFNγ ([3]; Table 22, D132, 1.9 μg/ml): 14.3
IFNγ ([3]; Table 22, D132, 5.6 μg/ml): 0.0
IFNγ ([3]; Table 22, D132, 16.7 μg/ml): 0.0
IFNγ ([3]; Table 22, D132, 50 μg/ml): 12.3
IFNγ ([3]; Table 22, D149, 5.6 μg/ml): 0.0
IFNγ ([3]; Table 22, D149, 16.7 μg/ml): 0.0
IFNγ ([3]; Table 22, D149, 50 μg/ml): 5.7
IFNγ ([3]; Table 22, D379, 1.9 μg/ml): 0.3
IFNγ ([3]; Table 22, D379, 5.6 μg/ml): 0.0
IFNγ ([3]; Table 22, D379, 16.7 μg/ml): 0.0
IFNγ ([3]; Table 22, D379, 50 μg/ml): 0.0
IFNγ ([3]; Table 22, D399, 1.9 μg/ml): 0.0
IFNγ ([3]; Table 22, D399, 5.6 μg/ml): 0.0
IFNγ ([3]; Table 22, D399, 16.7 μg/ml): 0.0
IFNγ ([3]; Table 22, D399, 50 μg/ml): 18.3
IFNγ ([3]; Table 22, D417, 1.9 μg/ml): 0.0
IFNγ ([3]; Table 22, D417, 5.6 μg/ml): 146.7
IFNγ ([3]; Table 22, D417, 16.7 μg/ml): 13.3
IFNγ ([3]; Table 22, D417, 50 μg/ml): 0.0
IFNγ ([3]; Table 22, D518, 1.9 μg/ml): 0.0
IFNγ ([3]; Table 22, D518, 5.6 μg/ml): 0.0
IFNγ ([3]; Table 22, D518, 16.7 μg/ml): 0.0
IFNγ ([3]; Table 22, D518, 50 μg/ml): 0.0
